This data set has as its system Escherichia coli TOP10. Description: shrunken log2 fold change of peptide-encoding DNA abundance (4.5 h post-induction vs induction); higher = less antimicrobial activity (less host growth inhibition). The following applies: time post-induction: 4.5 h; library: site-saturation at positions 5, 18, 19, 20.

The text below walks through data of the supplement of paper PMC9112550, “Optimization of the antimicrobial peptide Bac7 by deep mutational scanning” (BMC Biology, 2022).
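Also: peptides expressed intracellularly from a pBAD plasmid library in pooled LB shake-flask culture, induced with 0.3% L-arabinose, DNA abundance read by NGS, three biological replicates, DESeq2 with apeglm shrinkage.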

As to RRIRHRPPRLPRPRPRPRTVPRP, the “shrunken log2 fold change” value was 0.126.

As for RRIRERPPRLPRPRPRPEHPPRP, the “shrunken log2 fold change” value was -0.0878.

With RRIRIRPPRLPRPRPRPLELPRP, the “shrunken log2 fold change” value was -0.461.

With RRIRLRPPRLPRPRPRPQGLPRP, the “shrunken log2 fold change” value is -0.0348.

As for RRIRHRPPRLPRPRPRPEQAPRP, the “shrunken log2 fold change” value is -0.0477.

Regarding RRIRIRPPRLPRPRPRPHGHPRP, the “shrunken log2 fold change” value is -0.216.

RRIRLRPPRLPRPRPRPQLYPRP: the “shrunken log2 fold change” value was -0.12.

For RRIRKRPPRLPRPRPRPYPPPRP, the “shrunken log2 fold change” value was -0.289.

For RRIRPRPPRLPRPRPRPAFDPRP, the “shrunken log2 fold change” value was found to be 0.388.

Take RRIRERPPRLPRPRPRPTRGPRP: the “shrunken log2 fold change” value turned out to be 0.0807.

As for RRIRFRPPRLPRPRPRPDEYPRP, the “shrunken log2 fold change” value is -0.014.

For the sequence RRIRDRPPRLPRPRPRPIIWPRP, the “shrunken log2 fold change” value was found to be 0.156.

With RRIRVRPPRLPRPRPRPPELPRP, the “shrunken log2 fold change” value amounted to 0.186.

For RRIRTRPPRLPRPRPRPMELPRP, the “shrunken log2 fold change” value was -0.172.

With RRIRKRPPRLPRPRPRPTCPPRP, the “shrunken log2 fold change” value turned out to be 0.0404.

Take RRIRGRPPRLPRPRPRPIYQPRP: the “shrunken log2 fold change” value amounted to 0.0644.

For the sequence RRIRCRPPRLPRPRPRPQPSPRP, the “shrunken log2 fold change” value worked out at 0.228.

On to RRIRWRPPRLPRPRPRPTHKPRP, for which the “shrunken log2 fold change” value was 0.396.

On to RRIRVRPPRLPRPRPRPIRCPRP, for which the “shrunken log2 fold change” value was -0.0498.

Regarding RRIRNRPPRLPRPRPRPLNMPRP, the “shrunken log2 fold change” value is -0.636.

Consider RRIRKRPPRLPRPRPRPKFVPRP, for which the “shrunken log2 fold change” value is -0.0367.

With RRIRGRPPRLPRPRPRPWCAPRP, the “shrunken log2 fold change” value was 0.407.

On to RRIRCRPPRLPRPRPRPEEDPRP, for which the “shrunken log2 fold change” value is -0.00229.

On to RRIRNRPPRLPRPRPRPLQMPRP, for which the “shrunken log2 fold change” value is -0.0999.

As for RRIRFRPPRLPRPRPRPRFFPRP, the “shrunken log2 fold change” value was 0.0547.

Take RRIRPRPPRLPRPRPRPFKQPRP: the “shrunken log2 fold change” value was -0.258.

Take RRIRYRPPRLPRPRPRPMCTPRP: the “shrunken log2 fold change” value came out at 0.00658.

As for RRIRGRPPRLPRPRPRPLKDPRP, the “shrunken log2 fold change” value was determined as 0.125.

Turning to RRIRHRPPRLPRPRPRPVYEPRP, the “shrunken log2 fold change” value came out at 0.015.

For the sequence RRIRCRPPRLPRPRPRPDTKPRP, the “shrunken log2 fold change” value is -0.158.

RRIRFRPPRLPRPRPRPVLKPRP: the “shrunken log2 fold change” value was -0.24.

On to RRIRERPPRLPRPRPRPHMWPRP, for which the “shrunken log2 fold change” value is -0.0491.

For RRIRNRPPRLPRPRPRPLMSPRP, the “shrunken log2 fold change” value was -0.316.

As to RRIRWRPPRLPRPRPRPCDAPRP, the “shrunken log2 fold change” value was found to be 0.138.

In the case of RRIRWRPPRLPRPRPRPFFRPRP, the “shrunken log2 fold change” value came out at 0.33.

Turning to RRIRARPPRLPRPRPRPDLYPRP, the “shrunken log2 fold change” value came out at 0.00132.

With RRIRFRPPRLPRPRPRPKAMPRP, the “shrunken log2 fold change” value is 0.23.

Consider RRIRYRPPRLPRPRPRPEIPPRP, for which the “shrunken log2 fold change” value came to 0.0336.

For the sequence RRIRRRPPRLPRPRPRPWEEPRP, the “shrunken log2 fold change” value turned out to be 0.158.

For RRIRSRPPRLPRPRPRPHMWPRP, the “shrunken log2 fold change” value was 0.202.

Consider RRIRDRPPRLPRPRPRPPPMPRP, for which the “shrunken log2 fold change” value turned out to be 0.519.

For the sequence RRIRPRPPRLPRPRPRPLAYPRP, the “shrunken log2 fold change” value is -0.074.

In the case of RRIRGRPPRLPRPRPRPICNPRP, the “shrunken log2 fold change” value came out at 0.645.

For the sequence RRIRRRPPRLPRPRPRPFYMPRP, the “shrunken log2 fold change” value was -0.198.

Consider RRIRYRPPRLPRPRPRPMIYPRP, for which the “shrunken log2 fold change” value is -0.0142.

With RRIRFRPPRLPRPRPRPGASPRP, the “shrunken log2 fold change” value came out at 0.109.

Consider RRIRQRPPRLPRPRPRPPPRPRP, for which the “shrunken log2 fold change” value is 1.25.

Turning to RRIRTRPPRLPRPRPRPERGPRP, the “shrunken log2 fold change” value is 0.715.

For the sequence RRIRMRPPRLPRPRPRPVRFPRP, the “shrunken log2 fold change” value was found to be 0.725.

For the sequence RRIRNRPPRLPRPRPRPSPCPRP, the “shrunken log2 fold change” value is -0.36.

With RRIRGRPPRLPRPRPRPFILPRP, the “shrunken log2 fold change” value was -0.196.

Regarding RRIRVRPPRLPRPRPRPRQLPRP, the “shrunken log2 fold change” value came to 0.276.

Take RRIRWRPPRLPRPRPRPWYWPRP: the “shrunken log2 fold change” value was -0.209.

Turning to RRIRVRPPRLPRPRPRPIIRPRP, the “shrunken log2 fold change” value is -0.199.

Consider RRIRNRPPRLPRPRPRPWRYPRP, for which the “shrunken log2 fold change” value is -0.0121.

RRIRTRPPRLPRPRPRPGANPRP: the “shrunken log2 fold change” value was -0.124.

With RRIRLRPPRLPRPRPRPGRQPRP, the “shrunken log2 fold change” value came to 0.207.

RRIRQRPPRLPRPRPRPMHCPRP: the “shrunken log2 fold change” value was found to be 0.0165.

RRIRVRPPRLPRPRPRPSCYPRP: the “shrunken log2 fold change” value is -0.568.

Take RRIRHRPPRLPRPRPRPEWPPRP: the “shrunken log2 fold change” value was 0.228.

Regarding RRIRQRPPRLPRPRPRPCLMPRP, the “shrunken log2 fold change” value was -0.0141.

For RRIRGRPPRLPRPRPRPILQPRP, the “shrunken log2 fold change” value came out at 0.621.

Turning to RRIRMRPPRLPRPRPRPALRPRP, the “shrunken log2 fold change” value is 0.851.

In the case of RRIRCRPPRLPRPRPRPCLFPRP, the “shrunken log2 fold change” value was -0.333.

For the sequence RRIRNRPPRLPRPRPRPQFSPRP, the “shrunken log2 fold change” value is -0.306.

RRIRHRPPRLPRPRPRPTTLPRP: the “shrunken log2 fold change” value was -0.301.

As for RRIRRRPPRLPRPRPRPHMTPRP, the “shrunken log2 fold change” value stood at 0.00051.

Take RRIRKRPPRLPRPRPRPPCHPRP: the “shrunken log2 fold change” value was determined as 0.176.

Consider RRIRFRPPRLPRPRPRPINYPRP, for which the “shrunken log2 fold change” value is -0.0562.

On to RRIRLRPPRLPRPRPRPWHQPRP, for which the “shrunken log2 fold change” value amounted to 0.0225.

On to RRIRHRPPRLPRPRPRPNGKPRP, for which the “shrunken log2 fold change” value was -0.335.

Regarding RRIRVRPPRLPRPRPRPSNYPRP, the “shrunken log2 fold change” value was -0.342.

RRIRCRPPRLPRPRPRPDIFPRP: the “shrunken log2 fold change” value was -0.262.

Turning to RRIRERPPRLPRPRPRPRLFPRP, the “shrunken log2 fold change” value turned out to be 0.00738.

With RRIRHRPPRLPRPRPRPLHPPRP, the “shrunken log2 fold change” value was -0.148.

On to RRIRWRPPRLPRPRPRPHKKPRP, for which the “shrunken log2 fold change” value was determined as 0.028.

As for RRIRLRPPRLPRPRPRPLAQPRP, the “shrunken log2 fold change” value was 0.73.

Regarding RRIRERPPRLPRPRPRPFCEPRP, the “shrunken log2 fold change” value is -0.0162.

Consider RRIRLRPPRLPRPRPRPSGHPRP, for which the “shrunken log2 fold change” value is -0.208.

As for RRIRNRPPRLPRPRPRPCYEPRP, the “shrunken log2 fold change” value was -0.0244.

Turning to RRIRQRPPRLPRPRPRPFYFPRP, the “shrunken log2 fold change” value was -0.697.

For RRIRLRPPRLPRPRPRPMFHPRP, the “shrunken log2 fold change” value is -0.681.

Turning to RRIRGRPPRLPRPRPRPMHCPRP, the “shrunken log2 fold change” value turned out to be 0.0139.

Turning to RRIRCRPPRLPRPRPRPQIKPRP, the “shrunken log2 fold change” value is -0.762.

As to RRIRFRPPRLPRPRPRPPYFPRP, the “shrunken log2 fold change” value amounted to 0.0621.

RRIRMRPPRLPRPRPRPGMFPRP: the “shrunken log2 fold change” value came out at 0.341.

As to RRIRRRPPRLPRPRPRPWYAPRP, the “shrunken log2 fold change” value was -0.0635.

Turning to RRIRDRPPRLPRPRPRPPWDPRP, the “shrunken log2 fold change” value turned out to be 0.442.

Turning to RRIRERPPRLPRPRPRPVIRPRP, the “shrunken log2 fold change” value was -0.305.

Consider RRIRRRPPRLPRPRPRPLNHPRP, for which the “shrunken log2 fold change” value was -0.0852.

Regarding RRIRHRPPRLPRPRPRPAWTPRP, the “shrunken log2 fold change” value is -0.136.
